Assay results from patent US11098288B2, “D-type amino acid dehydrogenase” (Kureha Corporation, priority 2017, dated 2021).

Key:
[1] = Optimum pH in catalytic reaction (deamination of meso-diaminopimelic acid); assay type: biochemical, Thermosyntropha lipolytica; settings: NADP^+, 50° C.
Description: The optimum pH was evaluated for the D-type amino acid dehydrogenase obtained in Example 2. The activity of the enzyme was measured by determining an increase in absorbance at wavelength of 340 nm of NADPH produced by the enzymatic catalytic reaction.
The absorbance was measured by an ultraviolet-visible spectrophotometer UV-1800 (available from SHIMADZU). The specific activity of the enzyme was calculated from the concentration of the enzyme used and enzyme dilution rate using the obtained absorbance change and the following equation.

[2] = Optimum temperature in catalytic reaction; assay type: biochemical, Thermosyntropha lipolytica; settings: meso-diaminopimelic acid as substrate, NADP^+
Description: The measurement results are illustrated in FIG. 6.

[3] = Thermal stability of the enzyme (residual activity after heat treatment); assay type: physicochemical, Thermosyntropha lipolytica; settings: 70° C., 30 minutes, 10 mM phosphate buffer pH 7.2; activity at 50° C. as 100%
Description: The D-type amino acid dehydrogenase purified in Example 2 was heat-treated for 30 minutes under various temperature conditions (50, 55, 60, 65, or 70° C.) in 10 mM phosphate buffer solution (pH 7.2), and the residual activity after standing for 5 minutes in ice was confirmed. […] The residual activity after treatment at other temperatures was calculated as a relative activity, with the activity at 50° C. as 100%.

[4] = pH stability of the enzyme (residual activity after treatment in buffers); assay type: physicochemical, Thermosyntropha lipolytica; settings: pH 5.0 to 9.5, 50° C. for 30 minutes, 100 mM buffer; activity at pH 9.0 as 100%
Description: The D-type amino acid dehydrogenase purified in Example 2 was heat-treated at 50° C. for 30 minutes in each 100 mM buffer solution (pH 1.5, 2.0, 2.5, 3.0, 3.5, 4.0, 4.5, 5.0, 5.5, 6.0, 6.5, 7.0, 7.5, 8.0, 8.5, 9.0, 9.5, 10.0, 10.5, 11.0, or 11.3), and the residual activity after standing for 5 minutes in ice was confirmed. […] The activity in the treatment at pH 9.0 was defined as 100%, and the residual activity after the treatment at other pH was calculated as the relative activity.

[5] = Activity-staining with D-alanine or L-alanine as substrate; assay type: biochemical, Thermosyntropha lipolytica; settings: 10 mM D-alanine or L-alanine, 1.25 mM NADP^+, pH 8.0, 50° C., 30 minutes
Description: The activity was evaluated for the D-type amino acid dehydrogenase obtained in Example 2 above. The activity of the enzyme was evaluated by an activity-staining method due to a catalytic reaction of the enzyme. More specifically, an appropriate amount of enzyme solution was subjected to disc gel electrophoresis. […] The 2-(4-iodophenyl)-3-(4-nitrophenyl)-5-phenyl-2H-tetrazolium chloride in the reaction solution is reduced to form a […] formazan. A reaction formula is indicated below. In the following reaction formula, the D-type amino acid dehydrogenase is referred to as “meso-DAPDH”.

B1: D-type amino acid dehydrogenase: D-type amino acid dehydrogenase derived from Thermosyntropha lipolytica, amino acid sequence SEQ ID NO: 2, hexamer (protein, listed as Thermosyntropha lipolytica)
chain: MGEKIRVAIVGYGNIGRYALDAIKAAPDMELAGVVRRSSSLGDKPAELADVPVVGSIKELTGVKVALLCTPTRSVPEYAREILALGINTVDSYDIHGQLADLRLELDKVAKEHNAVAVISAGWDPGTDSMVRCMFEFMAPKGITYTNFGPGMSMGHSVAVKAVKGVKNALSMTIPLGTGVHRRMVYVELEPGADFAQVEKAVKTDPYFVKDETHVIQVEDVDALIDMGHGVLMERKGVSGGTHNQLLSFSMRINNPALTAQIMVASARASVKQKPGAYTMIQIPIIDYMYGDPDEIIRQLV
modifications: hexamer
optimum pH for activity [1]: 10.5
optimum temperature for activity [2]: about 55 °C
residual activity after heat treatment [3]: about 74%
residual activity after pH treatment [4]: ≥ 90%
stereoselectivity for substrate (activity-staining) [5]: selectively acts on the D-amino acid
